Laboratory results reported in PMC5669894 (2017).
Read-outs that look alike come from different tables or passages of the source.

What was measured:
[1] = molecular target: T1, C-terminal SH3 domain of the growth factor receptor-bound protein 2 (Grb2) (UniProt P62993 158-211)
[2] = molecular target: T1, C-terminal SH3 domain of the growth …; remark: listed apart in the source
[3] = molecular target: T1, C-terminal SH3 domain of the growth …; remark: listed apart in the source

T1 sequence (P62993 156-215): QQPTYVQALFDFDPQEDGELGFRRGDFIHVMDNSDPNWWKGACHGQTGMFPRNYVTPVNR

SRGSEIQPPAVNRNLKPDRKAK [Gab2 503-524 peptide, variant P512A]
koff [1]: 90 s⁻¹

SRGSEIQPPPVNRNLKADRKAK [Gab2 503-524 peptide, variant P519A]
koff [2]: 250 s⁻¹

SRGSEIQAPPVNRNLKPDRKAK [Gab2 503-524 peptide, variant P510A]
koff [3]: 100 s⁻¹
